pKd: −log10 of the molar value.
Test system: GST-YTHDF2 (human)
Assay: EMSA
Conditions: one N6-methyladenosine

Q: m6A-RNA was tested. Which pKd did it give?
A: The pKd was 6.33.

— PMC3658177
